Experiments:
HUVEC [1] = test: HUVEC chemotaxis (migration) toward U266 conditioned media; format: cell-based, human; details: U266 treated 48 h with 10 μg/mL Gal-3C, 5 nM Bor or both; 20% conditioned medium; ANOVA, Tukey's post-test
Procedure: Chemotaxis of HUVEC Cells. Chemotaxis (migration) was analyzed with HUVEC cells as a measure of angiogenic potential as reported (86), using 50×10^3 cells/well and 24-well transwell inserts with 8-μm pores. […] As a negative control, EGM-2 medium alone was used. After incubation for 16 h, cells were removed from the upper chamber, and the migrated cells were visualized on the lower side of the filter after fixing and staining with 30% methanol, 10% acetic and 0.1% Coomassie Brilliant Blue. Next, the filters were extensively washed with water, and then air-dried and photographed using an inverted X71 microscope (Olympus, Center Valley, Pa., USA). The average number of cells in 4 random fields per filter was calculated. The studies were run in triplicate and the results are expressed as a migration index (MI), as follows: MI=number of cells migrated in the presence of conditioned medium/number of cells migrated in the presence of EGM-2 alone. […] All assays were run in triplicate.
FIG. 3A is a graph of the results from the vascular endothelial cell migration assay. FIG. 3B is an image of the filters. […] Mean migration indexes (left; ±95% C.I.) expressed as the number of cells migrated in the presence of the indicated stimulus divided by the number of cells migrated in the presence of EBM-2 alone. […]

HUVEC [2] = test: HUVEC tubule formation assay on Matrigel with U266 conditioned media; format: cell-based, human; details: 20% V/V conditioned medium of U266 treated 48 h with 10 μg/mL Gal-3C, 5 nM Bor or both; 16-hour incubation
Procedure: HUVEC Tubule Formation Assay. A tubule formation assay was performed in vitro as described (86) to measure angiogenesis. Briefly, growth factor-reduced Matrigel (Becton Dickinson) was allowed to polymerize in the presence of 30 ng/mL recombinant basic fibroblastic growth factor (bFGF; R&D Systems) for 1 hour at 37° C.
FIG. 5 is an image of the results from the In vitro tubule formation assay having 6 regions. Serum-starved HUVEC were allowed to form tubules on a […]™ surface in the presence of VEGF (positive control), EMB-2 medium alone (negative control), or EBM-2 supplemented with 20% V/V U266 conditioned media (c.m.). […] To evaluate the effect of different treatments on the ability of U266 cells to induce angiogenesis, a […]™-based tubule formation assay was performed in the presence of U266 conditioned media as described for the chemotaxis assay. Serum-starved (5×103) HUVEC were seeded on the […]™ surface in 200-μL EBM-2 medium supplemented with 20% V/V conditioned medium. Pictures were taken after 16-hour incubation in 5% CO2 at 37° C. The assay was run in triplicate and representative images are depicted in FIG. 5. As a positive control, EBM-2 medium supplemented with 20 ng/mL VEGF was used.

VEGF = test: ELISA of VEGF in U266 cell-conditioned medium; format: cell-based, human; details: 48-hour culture with 10 μg/mL Gal-3C, 5 nM Bor or both
Procedure: ELISA of VEGF and bFGF Levels. The levels of VEGF and bFGF were measured by direct ELISA as follows. Flat-bottom 96-well polycarbonate plates were coated at 4° C. with 50 μL/well cell culture supernatants diluted 1:25 in carbonate coating buffer (0.1 M NaHCO3, […]) at 4° C. overnight. Standard curves were obtained with purified recombinant human VEGF and bFGF (both from R&D Systems) serially diluted in coating buffer (10-fold serial dilutions from 1,000 to 0 ng/mL). After removing diluted supernatants or standards, and blocking with PBS supplemented with 1% W/V BSA for 1 hour at room temperature, plates were incubated for 1 hour at room temperature with mouse anti-human VEGF or rabbit anti-human bFGF primary antibodies (2 μg/mL in PBS, 50 μL/well Abeam, Mass., USA). Then, plates were washed twice with PBS with 0.025% V/V Tween-20 (300 μL/well) and incubated at room temperature with anti-mouse or anti-rabbit HRP-labeled secondary antibodies (0.2 μg/mL in PBS, 50 μL/well Abeam, Mass., USA) for 1 hour. The plates were washed thrice with PBS containing 0.025% V/V Tween-20 (300 μL/well), the TMB colorimetric substrate (Thermo Fisher Scientific, Waltham, Mass., USA) was added, and after 5 minutes the absorbance was measured (0.1 s) at 450 nm on a Victor 2 multimodal microplate reader (PerkinElmer, Billerica, Mass., USA). All samples were run in triplicates. […]

AKT/IKK pathway = test: Western blot of proteins in the NF-κB AKT/IKK pathway; format: cell-based; details: U266 and primary human MM cells; Gal-3C 10 μg/ml
Text: EXAMPLE 4 indicates Gal-3C impairs NF-kB activation induced by Bonin U266 cells. Recently, it has been shown that the mechanism of action of Boris more complex than originally thought and can be differ depending on the cell type. […] This effect potentially reduces the therapeutic effect of Bonin MM, because NF-kB activation in plasma cells is associated with anti-apoptotic pathways (91). […] Comparison of NFkB expression by Western blot. […] Equal amounts of lysates of human primary MM and U266 cells and media were fractionated by SDS-PAGE and transferred to nitrocellulose membranes. Primary antibodies were visualized with HRP-coupled goat anti-rabbit or anti-mouse IgGs using an ATK/IKK kit (Cell Signaling Technology, Danvers, Mass.).
Upon IKK-mediated phosphorylation, IKBα dissociates from the NF-kB complex (p50 and p65 proteins). Free NF-kB is then phosphorylated on serine 529 of the p65 subunit and enters the nucleus where it regulates gene transcription.

[3] = test system: U266 MM subcutaneous tumors; test: U266 subcutaneous tumor model of MM in NOD/SCID mice; format: in vivo, mouse; details: for mean difference of tumor volume between Gal-3C and Bor: Gal-3C lower than Bor, P<0.001
Procedure: Testing Gal-3C and Bonin NOD/SCID mouse model of MM: Prior to injection, U266 cells were washed once in Dulbecco's PBS (Sigma-Aldrich), counted, and adjusted to the appropriate density with additional PBS prior to inoculation. PBS containing a suspension of 1×10^7 U266 cells was injected subcutaneously into the abdomen of naive NOD/SCID mice. The primary tumors were measured with a pair of calipers once a week. Tumor volume was calculated by the formula width 2×length×0.5, where width was the smallest dimension. The mice were randomly divided into four groups with five mice in each group after 14 days. Control group #1 was subcutaneously implanted in the abdomen with a PBS-only containing 200-μl mini-osmotic pump. Group #2 received a dose of Gal-3C (30 μg/d/mouse) subcutaneously over a 16-day period for a total of 500 μg via a 200-μl mini-osmotic pump implanted abdominally. Group #3 was treated with six doses of 15 μg Bonin 50-μl injections via the tail vein on days 1-2, 8-9, and 15-16 for a total of 90 μg. Group #4 received Gal-3C via mini-pump for a total dose of 500 μg Gal-3C (30 μg/d/mouse) plus a total 90 μg Bor in 21 days. Anesthetized animals were euthanized and a post-mortem examination was conducted on the whole animals and dissected organs after 35 days.

human breast cancer = details: mouse model of human breast cancer, reference (60); cited from earlier work

B1: Gal-3C: N-terminally truncated human galectin-3 consisting of 143 carboxy-terminal amino acid residues, SEQ ID NO: 1 (protein)
chain: GAPAGPLIVPYNLPLPGGVVPRMLITILGTVKPNANRIALDFQRGNDVAFHFNPRFNENNRRVIVCNTKLDNNWGREERQSVFPFESGKPFKIQVLVEPDHFKVAVNDAHLLQYNHRVKKLNEISKLGISGDIDITSASYTMI
For B1, the “migration index compared with controls” value (HUVEC [1]) was “no significant difference”, the “potential of U266 cells for induction of angiogenesis (tubule formation)” value (HUVEC [2]) was “almost completely impaired” and the “VEGF levels in U266 conditioned medium” value (VEGF) was “significantly reduced”. For the same molecule, the “P-p65, P-Akt, P-IKKβ and P-IKKα (activation of the AKT/IKK pathway)” value (AKT/IKK pathway) was “inhibited”, the “mean difference of tumor volume between Gal-3C and Bor” value ([3]; day 21) was 4.431±1.494 mm^3 and the “average tumor volume relative to that of the untreated controls” value ([3]; day 35, Gal-3C 30 μg/d/mouse by mini-osmotic pump, Bor six doses of 15 μg via tail vein) was 13.5%. For the same molecule, the “mean difference of tumor volume between Gal-3C and Bor” value ([3]; day 35) was 31.54±4.379 mm3, the adverse side effects (human breast cancer) was “no evidence of adverse side effects” and the “tumor growth and metastasis” value (human breast cancer) was “inhibited tumor growth and metastasis”.

Source: patent publication US9744212B2, “Galectin-3C combination therapy for human cancer” (Texas Tech University System, priority 2011, dated 2017)
